Measured values: patent publication US20250136696A1 (HARBOUR BIOMED SHANGHAI, published 2025)

How the values were obtained:
[1] = target: T1, Human KIR3DL3 protein (Sino Biological, 16055-H08H) (human, UniProt Q8N743 26-322); assay: ELISA, coated KIR3DL3, biotinylated protein detected with StrepTactin-HRP
T1 construct: Coated on the ELISA plate
Method: After the liquid was discarded, the plate was washed 3 times with a PBS buffer, 200 μl of PBS blocking solution containing 1% BSA was added, and the plate was incubated for 1 hour at room temperature. The blocking solution was discarded, and the plate was washed 3 times with a PBS buffer. […] The antibodies to be tested were subjected to 3-fold concentration dilution from 100 nM, with a total of 8 gradient concentrations. 100 μl of the diluted antibody was added to each well, and the plate was incubated at 4° C. overnight.

[2] = target: T2, biotinylated human B7-H7 protein (Acro Biosystems, B77-H82F5) (human, UniProt Q9UM44 23-344, biotinylated); assay: flow cytometry, blocking of biotinylated human B7-H7 binding to CHO-K1/KIR3DL3 cells
T2 construct: Bought soluble protein; also called biotin-B7H7 protein
T2 sequence (looked up): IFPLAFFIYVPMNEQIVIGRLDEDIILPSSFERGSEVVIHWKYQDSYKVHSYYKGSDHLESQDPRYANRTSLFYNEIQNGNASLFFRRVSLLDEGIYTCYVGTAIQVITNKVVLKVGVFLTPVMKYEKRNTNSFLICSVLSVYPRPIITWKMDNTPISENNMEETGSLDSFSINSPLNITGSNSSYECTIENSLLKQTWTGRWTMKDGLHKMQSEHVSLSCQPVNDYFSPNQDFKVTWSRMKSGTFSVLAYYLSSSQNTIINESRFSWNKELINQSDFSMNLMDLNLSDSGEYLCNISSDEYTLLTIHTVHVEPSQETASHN
From the text: (§1) This example was intended to study the in vitro blocking activity of human anti-B7-H7 antibodies against the binding of human B7-H7 to its receptor KIR3DL3. A CHO-K1 cell (CHO-K1/KIR3DL3, Harbour BioMed US, Inc.) overexpressing human KIR3DL3 was used in experiments at the cellular level where human B7-H7/human KIR3DL3 binding was blocked. Briefly, the CHO-K1/KIR3DL3 cells were digested and resuspended in PBS containing 2% BSA. The cells were adjusted to a cell density of 1×10⁶ cells/mL. […] The cells were incubated at 4° C. for 1 hour in the dark. […] The cells were rinsed twice by adding pre-chilled PBS containing 2% BSA at 100 μL/well, and were centrifuged at 500 g at 4° C. for 5 minutes, and the supernatant was discarded. A fluorescent secondary antibody (PE Streptavidin, BD, Cat #: 554061, 1:200) was added at 100 μL/well, and the cells were incubated at 4° C. for 30 minutes in the dark. The cells were washed twice by adding pre-chilled PBS at 200 µL/well, and centrifuged at 500 g at 4° C. for 5 minutes, and the supernatant was discarded. Finally, the cells were resuspended in pre-chilled PBS at 200 μL/well, and the fluorescence signal values were read using an ACEA Novocyte3000 flow cytometer. IC50 was calculated.

[3] = target: T3, human B7-H7 on the cell surface (human, UniProt Q9UM44 23-414); assay: flow cytometry, HCC827 cells
T3 construct: whole, on cells; also called hB7-H7; hu B7-H7
T3 sequence (looked up): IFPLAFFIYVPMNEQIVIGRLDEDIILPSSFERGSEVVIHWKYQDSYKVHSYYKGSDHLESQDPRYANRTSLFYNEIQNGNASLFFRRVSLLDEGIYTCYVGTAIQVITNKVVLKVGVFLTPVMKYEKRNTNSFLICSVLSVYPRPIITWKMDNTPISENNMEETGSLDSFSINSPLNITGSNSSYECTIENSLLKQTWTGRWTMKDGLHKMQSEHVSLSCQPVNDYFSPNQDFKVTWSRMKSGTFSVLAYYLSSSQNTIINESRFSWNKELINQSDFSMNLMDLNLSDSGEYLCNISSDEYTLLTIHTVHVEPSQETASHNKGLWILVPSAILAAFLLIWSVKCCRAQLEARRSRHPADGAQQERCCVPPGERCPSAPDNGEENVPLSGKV
Method: This example was intended to study the in vitro activity of H2L2 monoclonal antibodies against human B7-H7 in binding to human/cynomolgus monkey B7-H7. Since homologous molecules of B7-H7 were not present in mice, the detection was not performed. […] The cells were adjusted to a cell density of 1×10⁶ cells/mL, respectively. The cells were seeded in a 96-well V-bottom plate (Corning, #3894) at 100 μL/well, and the antibody to be tested at 2× final concentration with 3-fold concentration gradient dilution was then added at 100 μL/well. The cells were incubated at 4° C. for 2 hours in the dark. After the incubation, the cells were rinsed twice by adding pre-chilled PBS containing 2% BSA at 100 μl/well, and centrifuged at 500 g at 4° C. for 5 minutes, and the supernatant was discarded. […] The cells were washed twice by adding pre-chilled PBS containing 2% BSA at 100 μL/well, and centrifuged at 500 g at 4° C. for 5 minutes, and the supernatant was discarded. Finally, the cells were resuspended in pre-chilled PBS containing 2% BSA at 200 μL/well, and the fluorescence signal values were read using an ACEA Novocyte3000 flow cytometer.

[4] = target: T2, biotinylated human B7-H7 protein (Acro …); assay: flow cytometry, blocking of biotinylated human B7-H7 binding to HEK-293/CD28H cells
Method: as §1, with “CD28H. […]” for “KIR3DL3. A CHO-K1 cell (CHO-K1/KIR3DL3, Harbour BioMed US, Inc.) overexpressing human KIR3DL3 was used in experiments at the cellular level where human B7-H7/human KIR3DL3 binding was blocked. Briefly, the CHO-K1/KIR3DL3 cells were digested and resuspended in PBS containing 2% BSA.”, “μL/well,” for “µL/well,”

[5] = target: T2, biotinylated human B7-H7 protein (Acro …); assay: BLI epitope competition on SA-captured biotinylated B7-H7; competitor (first antibody) PR003251
Method: (§2) Epitope competition experiments were performed on the anti-B7-H7 antibodies using the ForteBio Octet Red96e platform with the same experimental buffer as described above. […] After being equilibrated in a buffer for 120 s, the sensors were immersed in various antibodies diluted to 100 nM for 240 s, and the final signal of the antibody binding to B7-H7 was recorded as the 100% signal for that antibody. Second step, epitope competition experiment: B7-H7 was captured using SA sensors at a capture height of 0.25 nm. The sensors were immersed in a first antibody (concentration: 100 nM) for 240 s, then the SA sensors were immersed in a mixture of the first antibody and a second antibody (final concentration of both antibodies: 100 nM) for 240 s, and the difference in signals before and after immersing the sensors in the mixture of the two antibodies was recorded as the signal for that antibody as the second antibody. The inhibition rate was calculated by the following equation, […]

[6] = target: T2, biotinylated human B7-H7 protein (Acro …); assay: BLI epitope competition on SA-captured biotinylated B7-H7; competitor (first antibody) PR003249
Method: as §2

[7] = target: T4, human B7-H7 recombinant protein (human, UniProt Q9UM44 23-344); assay: BLI (Octet), antibody captured on AHC sensor, human B7-H7 in solution, 1:1 global fit
T4 construct: also called human B7-H7 protein
T4 sequence (looked up): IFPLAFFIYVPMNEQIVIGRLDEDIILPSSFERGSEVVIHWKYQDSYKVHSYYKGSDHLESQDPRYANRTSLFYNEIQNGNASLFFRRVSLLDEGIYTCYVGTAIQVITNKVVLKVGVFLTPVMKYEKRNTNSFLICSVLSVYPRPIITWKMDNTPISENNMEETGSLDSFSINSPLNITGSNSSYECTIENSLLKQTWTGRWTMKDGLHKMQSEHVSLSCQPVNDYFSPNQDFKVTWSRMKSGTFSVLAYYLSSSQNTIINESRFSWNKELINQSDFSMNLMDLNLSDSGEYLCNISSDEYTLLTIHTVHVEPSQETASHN
Method: The binding kinetics between antigen and antibody was analyzed using an Octet Red 96e (Fortebio) molecular interaction analyzer by biolayer interferometry (BLI) technology.
For determining the affinity of antibodies for antigens, the rotary speed of the sensor was set at 1000 rpm. AHC sensors (Fortebio, #18-5060) placed in one column were first equilibrated in a test buffer for 10 minutes, and then used to capture the anti-B7-H7 antibodies at a capture height of 0.7 nm; and after being equilibrated in the buffer for 120 s, the AHC sensors bound to human B7-H7 (concentrations: 50-3.125 nM and 0 nM) with 2-fold gradient dilution for 180 s and dissociated for 300 s. The AHC sensors were finally regenerated by immersing in a 10 mM glycine-hydrochloric acid solution with pH 1.5 to elute the protein bound to the sensors.
For data analysis using Octet Data Analysis software (Fortebio, version 11.0), 0 nM well was used as the reference well, reference subtraction was performed, “1:1 Global fitting” method was selected for data fitting, the kinetic parameters of the binding of the antigen to the antigen-binding protein were calculated, and the kₒₙ (1/Ms) value, kdis (1/s) value and KD (M) value were obtained.

T1 sequence (Q8N743 26-322 limits assumed): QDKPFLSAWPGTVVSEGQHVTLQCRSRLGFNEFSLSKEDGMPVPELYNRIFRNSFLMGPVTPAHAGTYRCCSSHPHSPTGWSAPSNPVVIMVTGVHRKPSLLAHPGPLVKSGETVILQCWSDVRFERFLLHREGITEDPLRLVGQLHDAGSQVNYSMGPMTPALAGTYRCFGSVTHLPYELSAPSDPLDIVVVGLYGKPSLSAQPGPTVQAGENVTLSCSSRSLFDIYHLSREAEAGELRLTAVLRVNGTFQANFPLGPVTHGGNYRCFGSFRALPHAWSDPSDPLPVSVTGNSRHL

binding result [1] | IC50 [2] | Maximum inhibition rate (%) [2] | EC50 [3] | Maximum MFI [3] | IC50 [4] | Competitive inhibition rate (%) [5] | Competitive inhibition rate (%) [6] | Kd [7] | koff [7] | kon [7] | Binder
no binding (tested: 6 µg/ml) | – | – | – | – | – | – | – | – | – | – | Biotin-B7H4 protein (Acro Biosystems, B74-H82E2) (ligand, UniProt Q7Z7D3 29-258, looked up, biotinylated, also called negative control protein) FGISGRHSITVTTVASAGNIGEDGILSCTFEPDIKLSDIVIQWLKEGVLGLVHEFKEGKDELSEQDEMFRGRTAVFADQVIVGNASLRLKNVQLTDAGTYKCYIITSKGKGNANLEYKTGAFSMPEVNVDYNASSETLRCEAPRWFPQPTVVWASQVDQGANFSEVSNTSFELNSENVTMKVVSVLYNVTINNTYSCMIENDIAKATGDIKVTESEIKRRSHLQLLNSKA
– | 10.4 nM | 96.7% | 2.55 nM | 25100 MFI | 71.7 nM | 5.32% | 77% | 26.3 nM | 0.00205 s⁻¹ | 78100 M⁻¹ s⁻¹ | PR003181 (antibody, human IgG4 S228P, kappa, also called Control antibody 1; positive control) heavy: not shown light: DIVMSQSPSSLAVSAGEKVTMSCKSSQSLLNSRTRKNQLAWYQQKPGQSPKLLIYWASTRESGVPDRFTGSGSGTDFTLTISSVQAEDLAVYYCKQSYNLRTFGGGTKLEIKRTVAAPSVFIFPPSDEQLKSGTASVVCLLNNFYPREAKVQWKVDNALQSGNSQESVTEQDSKDSTYSLSSTLTLSKADYEKHKVYACEVTHQGLSSPVTKSFNRGEC
